Measurements published in publication PMC3328597.

Experiments:
[1] = target: His168 (UniProt position 168, …); assay: NMR; details: 50 mM NaCl; 20 mM Tris acetate; free Thr171-phosphorylated peptide, no RNA
[2] = target: His161 (UniProt position 161, …); assay: NMR; details: 50 mM NaCl; 20 mM Tris acetate; free Thr171-phosphorylated peptide, no RNA

HLRQPGIHPKTPNKFKKYSR
pKa [1]: 5.6 | pKa [2]: 6.4
